Consider 2 molecules from patent publication US20230083670A1 (IMMUNEONCO BIOPHARMACEUTICALS SHANGHAI, published 2023).

Experiment [1] has as its target T1, PD-L1 on CHO cells expressing human PD-L1 (CHO-PDL1) (human, UniProt Q9NZQ7 19-290).
T1 construct: whole, on cells; Species is stated as human for the CHO-PDL1 cells; also called CHO-PD-L1 cells; Raji-PD-L1 cells
The experiment in a line: flow cytometry on CHO-PD-L1 cells, FITC anti-human IgG-Fc. The protocol: (§1) Cells were washed with cold PBS twice, and then incubated with FITC-conjugated secondary antibody against human IgG-Fc (Cat #F9512, Sigma) for 45 min. Cells were washed twice and re-suspended in […] PBS. Then, the cells were subject to FACS analysis using a flow cytometer (Merck Millipore, Guava® easyCyte 5HT).
(A flow cytometer gives signals particle by particle.)

The target in experiment [2] is T2, CD47 on Jurkat cells (UniProt Q08722 19-323, limits assumed).
T2 construct: whole, on cells; also called CD47-expressing Raji cells
The experiment in a line: flow cytometry on Jurkat cells, FITC anti-human IgG-Fc. As to the method:
as §1

Experiment [3] has as its target T2, CD47 on Jurkat cells. The experiment in a line: flow cytometry competition; blocks FITC-SIRPα-Fc (80 nM) on PD-L1- CD47+ Raji cells. As to the method:
The mixtures were added to a 96-well plate containing PD-L1⁻ or PD-L1⁺ CD47-expressing Raji cells, and the plate was incubated at 4° C. for 45 minutes.

The target of experiment [4] is T1, PD-L1 on CHO cells expressing human …. The experiment can be described thus: flow cytometry competition; blocks Biotin-hPD1-mFc (1 µg/ml) on CD47- PD-L1+ CHO cells. The protocol:
Cells were incubated at 4° C. for 45 minutes, washed with PBS, and then further incubated at 4° C. for another 45 minutes with PE-conjugated mouse Anti-human CD279 (Cat #557946, BD BioScience).

Some results are limits rather than exact numbers.

T1 sequence (Q9NZQ7 19-290): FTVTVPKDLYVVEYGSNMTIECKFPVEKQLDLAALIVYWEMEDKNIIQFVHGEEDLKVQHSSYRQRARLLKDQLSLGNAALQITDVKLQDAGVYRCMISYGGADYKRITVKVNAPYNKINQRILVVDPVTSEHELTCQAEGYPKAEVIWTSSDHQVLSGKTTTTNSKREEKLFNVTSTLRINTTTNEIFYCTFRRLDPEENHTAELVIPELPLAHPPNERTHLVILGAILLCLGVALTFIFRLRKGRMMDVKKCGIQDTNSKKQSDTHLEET

B1: IMM2521 (bispecific antibody, human IgG1, kappa)
heavy: QVQLVQSGAEVKKPGASVKVSCKASGYTFTSNWMHWVRQAPGQGLEWMGMIHPNSGSSNYNEKFKSRVTMTRDTSTSTVYMELSSLRSEDTAVYYCARSYYGSSPYYFDYWGQGTLVTVSSASTKGPSVFPLAPSSKSTSGGTAALGCLVKDYFPEPVTVSWNSGALTSGVHTFPAVLQSSGLYSLSSVVTVPSSSLGTQTYICNVNHKPSNTKVDKRVEPKSCDKTHTCPPCPAPELLGGPSVFLFPPKPKDTLMISRTPEVTCVVVDVSHEDPEVKFNWYVDGVEVHNAKTKPREEQYNATYRVVSVLTVLHQDWLNGKEYKCKVSNKALPAPIAATISKAKGQPREPQVYTLPPSREEMTKNQVSLTCLVKGFYPSDIAVEWESNGQPENNYKTTPPVLDSDGSFFLYSKLTVDKSRWQQGNVFSCSVMHEALHNHYTQKSLSLSPGK
light: not shown
notes: SIRPαD1 mutant linked through the linker to the N-terminus of each light chain of IMM2515; also called recombinant fusion protein IMM2521; PD-L1×CD47 bispecific
A word on the EC50: it is the concentration needed to bring the measured effect to its halfway point. By IC50 is commonly meant the concentration that gives 50% inhibition. Regarding B1, the values for the EC50 in experiment [1] and in experiment [2] were 0.11 nM and 0.7 nM, respectively. For the same molecule, the figures for the IC50 in experiment [3] and in experiment [4] were 140 nM and < 1 nM, respectively.

B2: IMM2515 (antibody, human IgG1, kappa, V domains shown)
VH: QVQLVQSGAEVKKPGASVKVSCKASGYTFTSNWMHWVRQAPGQGLEWMGMIHPNSGSSNYNEKFKSRVTMTRDTSTSTVYMELSSLRSEDTAVYYCARSYYGSSPYYFDYWGQGTLVTVSS
VL: DIQMTQSPSSLSASVGDRVTITCRASQDIINYLNWYQQKPGKAPKLLIYYTSRLHSGVPSRFSGSGSGTDFTFTISSLQPEDIATYYCQQGDTLPWTFGQGTKVEIKR
notes: also called monoclonal anti-PD-L1 antibody; monospecific anti-PD-L1 antibody IMM2515
Take B2: the IC50 in experiment [4] is < 1 nM.
